For the test, the target named is Stat1, unphosphorylated, endogenous in 293 T cells (human (endogenous in 293 T)) (UniProt P42224).
Sequence of UniProt P42224 (P42224 whole entry): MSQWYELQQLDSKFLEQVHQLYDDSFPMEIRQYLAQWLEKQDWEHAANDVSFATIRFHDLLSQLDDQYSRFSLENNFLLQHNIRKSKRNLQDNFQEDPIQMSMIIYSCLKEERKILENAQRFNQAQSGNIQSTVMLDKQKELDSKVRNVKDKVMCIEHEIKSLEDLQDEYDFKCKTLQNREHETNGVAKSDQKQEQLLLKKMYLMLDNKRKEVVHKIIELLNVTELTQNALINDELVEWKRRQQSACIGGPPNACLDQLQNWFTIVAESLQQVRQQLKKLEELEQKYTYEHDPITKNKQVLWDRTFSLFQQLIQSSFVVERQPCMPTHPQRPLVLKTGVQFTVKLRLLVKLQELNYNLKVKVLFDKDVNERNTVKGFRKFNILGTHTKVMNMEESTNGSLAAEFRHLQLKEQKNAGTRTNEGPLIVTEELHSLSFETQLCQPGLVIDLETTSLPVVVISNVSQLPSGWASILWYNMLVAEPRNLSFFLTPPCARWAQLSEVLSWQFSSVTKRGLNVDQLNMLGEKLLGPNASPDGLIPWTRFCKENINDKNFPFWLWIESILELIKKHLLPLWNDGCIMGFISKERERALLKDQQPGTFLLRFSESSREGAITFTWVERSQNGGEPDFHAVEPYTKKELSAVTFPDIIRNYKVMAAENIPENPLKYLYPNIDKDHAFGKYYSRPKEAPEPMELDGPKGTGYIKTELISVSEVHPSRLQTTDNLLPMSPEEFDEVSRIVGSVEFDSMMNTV

In the case of “myc-tagged HPIV1 C′ protein with the F170S substitution (C′^F170S-myc) (natural protein)”, the percent of F170S HPIV1-infected Vero cells positive for nuclear Stat1 after IFN-β (1,000 IU/mL, 60 min), confocal microscopy (untagged C proteins made by the virus; Stat1 of Vero cells) stood at 82%.
Turning to “myc-tagged HPIV1 C′ protein, wild type (C′^WT-myc) (natural protein)”, the percent of WT HPIV1-infected Vero cells positive for nuclear Stat1 after IFN-β (1,000 IU/mL, 60 min), confocal microscopy (untagged C proteins made by the virus; Stat1 of Vero cells) amounted to 2%.

The record behind these values is article PMC3280236.
